Experiments:
[1] = target: T1, recombinant GST-tagged full length human Gal1 (F7) (human, UniProt P09382 1-135); test: Western blot
T1 construct: Produced in E. coli; also called GST-F7; not shown: glutathione S-transferase (GST) tag
Method: Anti-Gal1 monoclonal antibodies were generated and were determined to cross-react well with both human Gal1 and mouse Gal1 (FIG. 1). […] Six recombinant human Gal1 fragments (covering the N-terminal, CBD, post-CBD sequences) named F1, F2, F3, F4, F5, F6 and the full length protein F7 in fusion with GST-tag were produced in E. coli (FIG. 2).

[2] = target: T2, recombinant human galectin-1 (R&D Systems) (human, UniProt P09382 2-135); test: SPR (BIAcore 3000, 25 C), 8A12 captured via anti-mouse antibody, galectin as analyte, 1:1 Langmuir fit
T2 construct: Bought from R&D Systems; also called rhGal1; human galetin-1
Method: (§1) Surface Plasmon Resonance (SPR) analyses (also called Biomolecular Interaction Analysis, BIAcore) were also conducted in order to further define the biophysical properties (e.g., $kon$, $koff$, $koff/kon$ (K_D) of Gal1's interaction with the 8A12 mAb. SPR experiments were performed at 25° C. in the standard BIAcore running buffer HBS-EP on a BIAcore 3000 Instrument (BIAcore). In brief, anti-mouse antibody was first captured on the CM-5 sensor chip ((GE HealthCare). Afterwards, approximately 250 response units (RU) of anti-Gal1 mAb 8A12 were immobilized (with exception of ~350 RU for rmGal1 assay) and followed by various dilutions of recombinant galectin (human galetin-1, 2, 3, 4, 7, 8, 9 or murine galectin-1 (mGal1), from R&D Systems) to assess the binding of galectin 8A12. All data are shown after subtraction from a channel loaded with buffer alone. Data analysis to obtain the binding curves shown and equilibrium dissociation constant (KD) was performed using BIAevaluation 3.1 (BIAcore) by globally fitting the data to a simple 1:1 (Langmuir) binding model.

[3] = target: T3, recombinant murine galectin-1 (R&D Systems) (mouse, UniProt P16045 2-135); test: as above
T3 construct: Bought from R&D Systems; also called rmGal1; mGal1
Method: as §1

[4] = target: T4, recombinant human galectin-2 (R&D Systems) (human, UniProt P05162 1-132, limits assumed); test: SPR (BIAcore 3000), 8A12 captured via anti-mouse antibody, galectin as analyte
T4 construct: also called Gal2
T4 sequence (looked up): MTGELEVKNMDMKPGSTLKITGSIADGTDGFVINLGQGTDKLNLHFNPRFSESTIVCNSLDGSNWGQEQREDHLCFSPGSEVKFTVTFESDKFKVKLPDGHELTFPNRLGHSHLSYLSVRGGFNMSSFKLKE
Method: as §1

[5] = target: T5, recombinant human galectin-9 (R&D Systems) (human, UniProt O00182-2 2-323, limits assumed); test: as above
T5 construct: also called Gal9
Method: as §1

[6] = target: T6, recombinant human galectin-7 (R&D Systems) (human, UniProt P47929 2-136, limits assumed); test: as above
T6 construct: also called Gal7
Method: as §1

[7] = target: T7, recombinant human galectin-4 (R&D Systems) (human, UniProt P56470 2-323, limits assumed); test: as above
T7 construct: also called Gal4
T7 sequence (looked up): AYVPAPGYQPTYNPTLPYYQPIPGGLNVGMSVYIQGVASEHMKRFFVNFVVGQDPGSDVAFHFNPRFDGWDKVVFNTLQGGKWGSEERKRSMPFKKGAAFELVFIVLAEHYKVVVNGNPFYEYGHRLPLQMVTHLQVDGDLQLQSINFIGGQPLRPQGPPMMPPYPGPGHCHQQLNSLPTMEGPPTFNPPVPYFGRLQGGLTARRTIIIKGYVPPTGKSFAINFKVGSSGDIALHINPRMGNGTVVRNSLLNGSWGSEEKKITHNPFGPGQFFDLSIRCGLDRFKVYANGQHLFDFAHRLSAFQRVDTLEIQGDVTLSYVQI
Method: as §1

[8] = target: T8, recombinant human galectin-8 (R&D Systems) (human, UniProt O00214 1-317, limits assumed); test: as above
T8 construct: also called Gal8
T8 sequence (looked up): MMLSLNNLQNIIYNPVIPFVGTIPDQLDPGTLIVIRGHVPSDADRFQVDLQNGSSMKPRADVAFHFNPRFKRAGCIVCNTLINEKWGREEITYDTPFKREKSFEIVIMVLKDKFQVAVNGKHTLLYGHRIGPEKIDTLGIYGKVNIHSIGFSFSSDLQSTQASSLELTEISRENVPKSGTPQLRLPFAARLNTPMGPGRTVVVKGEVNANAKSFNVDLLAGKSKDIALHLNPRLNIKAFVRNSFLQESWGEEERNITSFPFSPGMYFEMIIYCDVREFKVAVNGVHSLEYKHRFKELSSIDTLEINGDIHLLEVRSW
Method: as §1

[9] = target: T9, recombinant human galectin-3 (R&D Systems) (human, UniProt P17931 2-250); test: as above
T9 construct: also called Gal3
Method: as §1

[10] = target: T10, endogenous murine Gal1 (galectin-1) in lysates of the murine melanoma line B16-F10 (mouse, UniProt P16045 2-135); test: Western blot of B16-F10 cell lysate, antibody titration
T10 construct: Endogenous protein in cell lysate, seen on Western blot; also called mouse Gal1
Source text: (§2) WB analysis of cell lysates derived from human Hodgkin lymphoma line, L428 and murine melanoma line, B16-F10. Lysates were probed with 8A12 at different titration showing a specific band of Gal1 (~14 kDa), 8A12 recognizes endogenous human and murine Gal1 at similar range of titres.

[11] = target: T11, endogenous human Gal1 (galectin-1) in lysates of the human Hodgkin lymphoma line L428 (human, UniProt P09382 2-135); test: Western blot of L428 cell lysate, antibody titration
T11 construct: Endogenous protein in cell lysate, seen as a band of ~14 kDa on Western blot; also called hGal1
Source text: as §2

T10 sequence (P16045 2-135 limits assumed): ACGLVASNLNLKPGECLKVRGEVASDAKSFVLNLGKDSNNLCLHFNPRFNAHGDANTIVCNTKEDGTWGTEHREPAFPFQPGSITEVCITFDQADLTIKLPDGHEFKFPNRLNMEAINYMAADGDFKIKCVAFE
T3 sequence (P16045 2-135 limits assumed): as above
T6 sequence (P47929 2-136 limits assumed): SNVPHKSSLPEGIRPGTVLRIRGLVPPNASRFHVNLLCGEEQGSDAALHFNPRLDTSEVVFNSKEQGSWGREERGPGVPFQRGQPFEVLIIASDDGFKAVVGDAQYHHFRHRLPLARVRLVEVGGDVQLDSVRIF
T5 sequence (O00182 other isoform, or with tags, fused parts or gaps limits assumed): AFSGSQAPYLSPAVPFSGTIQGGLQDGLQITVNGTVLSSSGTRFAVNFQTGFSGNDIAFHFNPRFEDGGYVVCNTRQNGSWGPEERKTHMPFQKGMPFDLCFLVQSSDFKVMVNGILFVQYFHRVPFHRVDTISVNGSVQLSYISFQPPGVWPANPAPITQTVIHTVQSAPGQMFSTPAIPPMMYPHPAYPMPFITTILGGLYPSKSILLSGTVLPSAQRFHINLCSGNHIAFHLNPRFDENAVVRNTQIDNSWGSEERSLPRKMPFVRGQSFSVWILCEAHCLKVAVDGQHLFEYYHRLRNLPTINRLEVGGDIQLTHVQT
T11 sequence (P09382 2-135 limits assumed): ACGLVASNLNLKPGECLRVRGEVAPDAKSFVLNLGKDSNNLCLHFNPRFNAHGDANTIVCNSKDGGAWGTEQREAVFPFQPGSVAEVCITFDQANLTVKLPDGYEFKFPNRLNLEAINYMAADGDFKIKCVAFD
T2 sequence (P09382 2-135 limits assumed): as above
T9 sequence (P17931 2-250 limits assumed): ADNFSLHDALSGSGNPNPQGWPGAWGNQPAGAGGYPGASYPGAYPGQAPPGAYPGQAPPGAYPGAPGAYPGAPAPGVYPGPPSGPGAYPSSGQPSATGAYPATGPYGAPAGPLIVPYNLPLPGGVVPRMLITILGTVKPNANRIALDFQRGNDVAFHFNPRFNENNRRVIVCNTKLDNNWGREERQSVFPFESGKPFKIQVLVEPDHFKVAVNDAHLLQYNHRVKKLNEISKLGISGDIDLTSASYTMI
T1 sequence (P09382 whole entry): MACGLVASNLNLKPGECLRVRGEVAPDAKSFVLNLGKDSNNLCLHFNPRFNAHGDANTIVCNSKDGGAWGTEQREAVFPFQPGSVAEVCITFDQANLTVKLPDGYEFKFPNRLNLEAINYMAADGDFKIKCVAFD

B1: anti-Gal1 monoclonal antibody 8A12.H9.H10 (antibody, V domains shown)
VH: QAYLQQSGAELVRPGASVRMSCKASGYTFTRYNMHWVKQTPRQGLEWIGRIYPGNGDTSYNQKFKGKATLTVDKSSSTAYMQLSSLTSEDSAVYFCTVWDYWGQGTTLTVSS
VL: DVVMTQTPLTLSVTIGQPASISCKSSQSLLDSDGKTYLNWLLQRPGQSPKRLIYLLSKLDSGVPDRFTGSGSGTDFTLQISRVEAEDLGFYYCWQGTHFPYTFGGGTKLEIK
notes: Murine monoclonal antibody from a hybridoma with a kappa light chain; Signal peptide limits are stated in base pairs and were converted to residues; also called 8A12 mAb; 8A12 antibody
B1: binds [1]; binds [2]; binds [3]. B1: no binding [4]; no binding [5]; no binding [6]. B1: no binding [7]; no binding [8]; no binding [9]. B1: binds [10]; binds [11].
